Laboratory results as given in publication PMC6097615 (Developmental cell, 2010).
Values belong to the binder of their own block, whether it stands above or below them.

B1: TRF1_(TRFH) (TRFH domain of TRF1, residues 58–268), GST tag removed (domain or fragment, human, UniProt P54274 58-268, looked up)
chain: EEEEEDAGLVAEAEAVAAGWMLDFLCLSLCRAFRDGRSEDFRRTRNSAEAIIHGLSSLTACQLRTIYICQFLTRIAAGKTLDAQFENDERITPLESALMIWGSIEKEHDKLHEEIQNLIKIQAIAVCMENGNFKEAEEVFERIFGDPNSHMPFKSKLLMIISQKDTFHSFFQHFSYNHMMEKIKSYVNYVLSEKSSTFLMKAAAKVVESKR
B3: Fbx4G (Fbx4 GTPase domain, residues 162–387) (domain or fragment, human, UniProt Q9UKT5 162-387, looked up)
chain: GAVTSFLHSLIIQNEPRFAMFGPGLEELNTSLVLSLMSSEELCPTAGLPQRQIDGIGSGVNFQLNNQHKFNILILYSTTRKERDRAREEHTSAVNKMFSRHNEGDDQQGSRYSVIPQIQKVCEVVDGFIYVANAEAHKRHEWQDEFSHIMAMTDPAFGSSGRPLLVLSCISQGDVKRMPCFYLAHELHLNLLNHPWLVQDTEAETLTGFLNGIEWILEEVESKRAR

How the values were obtained:
crystal structure = biological target: the molecule itself; assay: crystal structure
[1] = biological target: B3; assay: pull-down
[2] = biological target: B1; assay: crystal structure

Binder: B1
binding result (crystal structure): binds

binding result [1]: binds
B2: GST-TRF1_(TRFH) (domain or fragment, human, UniProt P54274 58-268, looked up)
chain: EEEEEDAGLVAEAEAVAAGWMLDFLCLSLCRAFRDGRSEDFRRTRNSAEAIIHGLSSLTACQLRTIYICQFLTRIAAGKTLDAQFENDERITPLESALMIWGSIEKEHDKLHEEIQNLIKIQAIAVCMENGNFKEAEEVFERIFGDPNSHMPFKSKLLMIISQKDTFHSFFQHFSYNHMMEKIKSYVNYVLSEKSSTFLMKAAAKVVESKR

Binder: B3
stoichiometry N [2]: 1 Fbx4G per TRF1_TRFH (printed as 2:2)
